B1: ANKRD40 (parent)
chain: VCCCELGVNPDQVEKIRKLPNTLL
B2: PPFIA4 (parent)
chain: YAGNLHESGVHGALLALDENFDHN

Variants of: B1
Test: protein stability index of a GFP-peptide fusion (GPS, HEK-293T) (PSI 1-6); higher = more stable
Conditions: c terminus: a fixed tail appended
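Note: lentivirally expressed fusions sorted by FACS into six bins by GFP to DsRed ratio, PSI derived from sequencing read proportions per bin multiplied by bin number.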

Protein stability index, by site and new letter:
C4: F 1.83; N 2.41; A 1.87; S 2.84
Q12: L 2.52; Y 1.21; W 2.29
L23: W 2.9
V8: K 2.2
E5: V 1.18; H 2.82; M 1.32; P 2.17; R 1.47; Y 2.68
L19: R 2.5; C 2.34
I16: G 2.01; L 1.56
C2: D 3.2; Y 2.6; W 1.45; G 2.73
V1: P 1.41
G7: I 2.45; L 2.3; T 2.85; W 1.51; Y 1.88
P10: G 2.17
E14: T 1.68; P 2.95; V 1.45
D11: E 2.18; F 1.49; R 2.63
C3: K 2.23
K18: I 1.43; R 2.18; T 1.89; A 1.26
P20: S 1.95; Y 2.23
N21: A 1.7; P 1.83; G 1.45
K15: C 1.33
R17: W 1.74; V 1.82; P 2.15
V13: L 1.64; W 2.07
N9: R 1.92; L 1.97; W 2.8; K 2.33
L6: F 1.4
L24: M 1.8; E 2.62; I 1.95

Variants of: B2
Test: as above
Conditions: c terminus: a fixed tail appended

Protein stability index, by site and new letter:
H11: G 3.35; Y 2.35; I 1.66; Q 3.59; S 2.9; N 2.83; L 1.76; V 1.88; M 1.87; F 2.49; P 2.57; W 3.06; K 3.33; A 3.06; D 4.25; C 1.22; T 2.59; R 2.46; E 3.19
D18: C 1.34; E 2.82; H 2.11; A 1.66; N 2.74; F 1.69; S 1.87; L 1.76; T 2.13; K 2.54; Q 2.65; P 2.16; R 2.55; V 2.07; I 2.2; M 2.38; W 2; G 1.95; Y 2.14
L15: C 3.06; Y 2.31; Q 3.52; N 3.89; R 2.8; K 3.46; H 3.31; V 3.29; F 2.2; P 4.09; S 3.87; G 3.54; M 2.93; A 4.13; I 2.22; T 3.78; D 4.06; E 4.23
L14: T 3.56; I 1.97; W 1.43; A 3.27; Q 4.02; K 3.15; E 3.83; F 1.81; C 2.36; Y 2.47; V 2.16; R 3.31; M 3.07; N 3.8; H 3.8; G 3.63; D 4.59; P 4.03; S 3.45
H23: Q 2.22; I 2.23; E 2.25; F 2.12; V 2.63; D 2.58; K 2.53; M 2.19; W 2.07; N 2.63; L 2.34; G 2.46; C 2.13; R 2.47; Y 2.43; T 2.61; P 2.81; A 2.18; S 2.19
G12: E 3.78; A 2.77; T 3.22; M 2.59; Y 1.7; Q 3.56; P 2.11; I 1.94; L 2.73; R 2.74; W 3.02; V 1.95; C 2.13; D 3.74; F 2.32; N 3.68; S 3.28; H 2.71; K 2.97
A13: S 2.33; H 2.67; P 2.96; Y 3.02; L 2.06; D 4.32; R 2.41; F 1.73; E 4.13; W 3.04; T 2.86; Q 3.8; G 2.65; V 2.07; C 2.21; I 1.86; K 2.96; N 2.66; M 1.49
L17: F 2.16; Y 1.76; M 2.96; I 2.02; H 4.06; A 3.43; P 3.35; D 4.18; K 3.24; C 3.21; Q 3.37; E 4.52; V 2.47; R 3.31; S 4.03; G 3.4; T 3.04; N 3.86; W 2.4
N20: P 2.63; K 2.23; L 1.63; E 3.07; V 2.42; Q 1.86; F 2.17; D 2.98; S 2.58; W 2.27; C 2.32; T 2.16; I 1.79; R 2.25; M 2.09; Y 2.24; A 2.68; H 2.48; G 3.1
F21: M 2.85; S 3.56; R 2.53; D 3.92; E 3.93; V 2.63; A 2.9; G 3.58; H 3; N 3.85; Y 2.6; L 3.51; C 3.23; Q 3.08; I 2.69; T 3.37; K 2.89; P 3.45; W 2.69
A16: S 3.2; R 2.99; W 3.58; Y 2.06; P 3.43; Q 3.31; L 2.36; H 3.25; F 3.06; K 2.73; I 1.97; N 3.23; M 2.43; E 4.12; T 3.34; V 2.31; G 1.77; D 3.85; C 2.39
V10: W 2.73; S 3.09; T 3.09; R 2.79; P 2.94; Q 3.19; Y 2.31; N 3.23; M 1.79
E19: D 2.6; Y 1.61; C 1.33; K 1.5; G 2.1; I 2.97; S 1.54; W 3.17; T 2.68; R 2.06; A 2.08; M 1.65; N 2.2; P 1.6; F 1.61; L 1.24; Q 1.64; H 1.31; V 2
N24: G 2.13; E 3.49; C 2.58; T 2.42; F 2.01; D 2.46; S 2.41; Q 2.69; Y 2.47; L 2.28; H 1.9; V 1.95; A 2.69; M 1.92; I 2.27; P 2.39; W 2.01; K 2.02; R 1.9
D22: A 2.56; T 1.87; M 2.3; C 1.65; N 1.99; Y 2.49; R 1.56; P 2.47; H 1.84; Q 2.2; I 2.11; E 2.48; W 2.41; K 2.37; S 2.02; G 2.4; F 2.01; V 1.27; L 1.46

Source: the supplement of paper PMC10567573
